Results taken from US20260167718A1 (Merck Sharp & Dohme, published 2026).
Residue numbers refer to the chain shown, from its start. Numbers in names are those of the source. Like-named read-outs stand apart in the source and are kept apart here. Each block holds one binder with its values, some of them ahead of it.

Legend:
[1] = target: T1, human ILT3 expressed on cells (human, UniProt Q8NHJ6 22-448); experiment: cELISA, CHO human ILT3 cells
T1 construct: whole, on cells; also called huILT3; LILRB4

[2] = target: T2, rhesus ILT3-His tagged recombinant protein (rhesus monkey (Macaca mulatta)); experiment: SPR (Biacore), rhesus ILT3-His
T2 construct: also called ILT3_MM; not shown: His tag
T2 chain: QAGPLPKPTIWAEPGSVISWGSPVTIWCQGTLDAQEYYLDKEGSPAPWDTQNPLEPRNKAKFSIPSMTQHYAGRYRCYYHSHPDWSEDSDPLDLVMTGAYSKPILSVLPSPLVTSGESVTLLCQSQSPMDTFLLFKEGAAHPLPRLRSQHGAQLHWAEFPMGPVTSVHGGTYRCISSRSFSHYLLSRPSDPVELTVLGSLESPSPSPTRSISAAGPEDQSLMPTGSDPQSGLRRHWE

[3] = target: T3, Human ILT3 (LILRB4) extracellular domain with C-terminal His Tag (human, UniProt Q8NHJ6 22-259); experiment: SPR (Biacore), human ILT3-His
T3 construct: the claims count residues 1-238 as the extracellular domain; also called human ILT3-His; ILT3_H

[4] = target: T1, human ILT3 expressed on cells; experiment: cELISA, CHO human ILT3 cells; remark: listed apart in the source
Method: (§1) Mouse anti-human ILT3 antibodies were tested for binding to human ILT3, and cross-reactivity to Rhesus monkey ILT3, human ILT5, human ILT7, human ILT8, and human ILT11 expressing CHO-K1 cells using a cell-based ELISA format. CHO-K1 cells were plated in 96-well tissue-culture plates in 50 μL of DMEM/F12, 10% BCS and gentamycin (CHO-K1 media). Cells were plated at either 2×10⁴ cells/well two days prior to the assay or 4×10⁴ cells/well one day prior to the assay. Media was removed from the wells prior to adding the test samples. Purified antibody was serially-diluted in CHO-K1 media and added to the CHO-K1 plates. The samples were incubated at room temperature for 30-60 minutes and plates were washed three times with PBS/05% Tween-20 using the cell wash program on the Biotek EL405x Select CW plate washer. Binding was detected using an HRP-conjugated goat anti-mouse IgG (Southern Biotech cat #1031-05) secondary antibody added at a 1:2000 dilution in CHO-K1 media and incubated at room temperature for 30-60 minutes. Assay plates were washed as above and developed with TMB and stopped with TMB stop solution (KPL cat #50-85-06). The absorbance at 450 nm—620 nm was determined. Mouse IgG1 (MIgG1) served as a control.

[5] = target: T3, Human ILT3 (LILRB4) extracellular …; experiment: SPR (Biacore), human ILT3-His; remark: listed apart in the source
Method: (§2) The binding kinetics and affinities of anti-human ILT3 clones for human or rhesus ILT3-His tagged recombinant protein were measured by surface plasmon resonance using a Biacore™ T200 system (GE Healthcare, Piscataway, NJ). HBS-EP+ buffer (BR-1006-69) was used as the running buffer. Anti-human Fc antibody (Human Fc Capture Kit, BR100839, GE Healthcare) was immobilized via amine coupling chemistry in all four flow cells on a Series S CM5 sensor chip (BR100530 or 29149603, GE Healthcare) following manufacturer instructions. Flow cell 1 was used as reference for background subtraction and was not used for capture. […] Following each injection cycle, all four flow cells were regenerated using 30 second injection of 3M MgCl₂ solution at a flow rate of 10 μL/minute. Reference subtracted sensorgrams were fit to a 1:1 Langmuir Binding Model in the Biacore™ T200 Evaluation Software (Version 2.0) to determine the association (ka) and dissociation (kd) rate constants and the equilibrium dissociation constant KD (=kd/ka).

[6] = target: T4, Rhesus monkey ILT3 expressed on CHO-K1 cells (rhesus monkey (Macaca mulatta)); experiment: cELISA, CHO rhesus ILT3 cells
T4 construct: whole, on cells; also called rhILT3; CHO-rhesus ILT3
Method: as §1

[7] = target: T2, rhesus ILT3-His tagged recombinant …; experiment: SPR (Biacore), rhesus ILT3-His
Method: as §2

[8] = target: T4, Rhesus monkey ILT3 expressed on CHO-K1 …; experiment: cELISA, CHO rhesus ILT3 cells; remark: listed apart in the source
[9] = target: T1, human ILT3 expressed on cells; experiment: cell-based or functional assay
[10] = target: T1, human ILT3 expressed on cells; experiment: cell-based ELISA on CHO-K1 cells expressing human ILT3, HRP anti-mouse IgG, OD 450-650 nm
[11] = target: T4, Rhesus monkey ILT3 expressed on CHO-K1 …; experiment: cell-based ELISA on CHO-K1 cells expressing Rhesus monkey ILT3, HRP anti-mouse IgG, OD 450-650 nm
[12] = target: T5, human ILT8 expressed on CHO-K1 cells (human, UniProt Q6PI73 24-481); experiment: cell-based ELISA on CHO-K1 cells expressing human ILT8, HRP anti-mouse IgG, OD 450-650 nm
T5 construct: whole, on cells; also called CHO-ILT8
T5 sequence (Q6PI73 24-481): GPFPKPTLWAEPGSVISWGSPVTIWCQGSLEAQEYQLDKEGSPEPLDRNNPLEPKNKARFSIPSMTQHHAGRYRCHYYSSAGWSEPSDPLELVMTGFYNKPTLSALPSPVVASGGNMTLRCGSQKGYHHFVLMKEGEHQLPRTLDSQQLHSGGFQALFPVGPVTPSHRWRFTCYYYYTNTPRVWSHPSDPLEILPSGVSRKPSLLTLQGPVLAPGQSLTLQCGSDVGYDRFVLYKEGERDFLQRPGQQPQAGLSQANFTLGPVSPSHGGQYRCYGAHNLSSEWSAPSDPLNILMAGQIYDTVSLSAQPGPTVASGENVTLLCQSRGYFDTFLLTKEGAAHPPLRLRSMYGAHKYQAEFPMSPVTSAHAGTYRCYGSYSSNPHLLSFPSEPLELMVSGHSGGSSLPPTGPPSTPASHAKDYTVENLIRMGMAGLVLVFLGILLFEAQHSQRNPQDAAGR
Method: as §1, with “The absorbance at 450 nm—620 nm was determined.” left out

EC50 [1]: 39.2 µg/mL
binding result [2]: no binding
Kd [3]: 16.9 nM
EC50 [4]: 0.0392 µg/mL
B1: Mouse anti-ILT3 mAb 1G12 IgG2a/Kappa (antibody, V domains shown)
VH: QVQMQQSGTELMKPGASMKISCKATGYTFSTYWIQWIKQRPGHGLEWIGEILPGSGTTNYNENFKGKATFSADTSSNTAYIHLSSLTSEDSAVFYCARRLGRGPFDYWGQGTTLTVSS
VL: DIQMTQSPSSLSASLGGKVTITCEASQDINKHIDWYQHQPGRGPSLLIHYASILQPGIPSRFSGSGSGRDYSFSITSLEPEDIATYYCLQYDNLLPTFGGGTKLEIK
notes: Mouse IgG2a/Kappa; also called p1G12; LB182.1G12.1B1

EC50 [1]: 21.4 µg/mL
Kd [5]: 0.021 nM
Kd [2]: 0.126 nM
EC50 [6]: 0.0231 µg/mL
Kd [3]: 0.0205 nM
Kd [7]: 0.126 nM
EC50 [8]: 21.3 µg/mL
EC50 [4]: 0.0214 µg/mL
B2: Rat anti-ILT3 mAb 24A4 IgG2a/Kappa (antibody, V domains shown)
VH: QVQLKESGPGLVQASETLSLTCTVSGFSLTSYCVNWVRQPSGKGPEWLGRFWYDEGKVYNLTLESRLSISGDTSKNQVFLKMNRLRTDDTGTYYCTRDRDTLGITGWFAYWGQGTLVTVSS
VL: ETVMTQSPTSLSASIGERVTLNCKASQSVGINVDWYQQTPGQSPKLLIYGSANRHTGVPDRFTGSGFGSGFTLTISNVEPEDLGVYYCLQYGSVPYTFGPGTKLELK
notes: Rat IgG2a/Kappa; also called p24A4; LB184.24A4.1A1

EC50 [1]: 1.99 µg/mL
Kd [5]: 6.99 nM
Kd [2]: 18 nM
EC50 [6]: 0.018 µg/mL
Kd [3]: 6.99 nM
Kd [7]: 18.2 nM
EC50 [8]: 18 µg/mL
EC50 [4]: 0.002 µg/mL
B3: Rat anti-ILT3 mAb 20E4 IgG2a/Kappa (antibody, V domains shown)
VH: QVQLKESGPGLVQASETLSLTCTVSGFSLTSYSVNWVRQPSGKGLEWMGRFWYDGGTAYNSTLESRLSISGDTSKNQVFLKMNSLQTDDTGTYYCTRDRDTMGITGWFAYWGQGTLVTVSP
VL: B2 VL with I31V, G70D, P100A
notes: Rat IgG2a/Kappa; also called p20E4; LB184.20E4.1E1.1D1

EC50 [1]: 7.72 µg/mL
Kd [5]: 0.012 nM
Kd [2]: 0.15 nM
EC50 [6]: 0.0095 µg/mL
Kd [3]: 0.0118 nM
Kd [7]: 0.145 nM
EC50 [8]: 9.48 µg/mL
EC50 [4]: 0.0077 µg/mL
B4: Rat anti-ILT3 mAb 37C8 IgG2a/Kappa (antibody, V domains shown)
VH: B2 VH with L102M
VL: B2 VL
notes: Rat IgG2a/Kappa; also called p37C8; LB184.37C8.1A3.1B1

Kd [5]: 0.096 nM
Kd [2]: 0.259 nM
EC50 [6]: 0.0679 µg/mL
Kd [3]: 0.0957 nM
Kd [7]: 0.259 nM
EC50 [4]: 0.0649 µg/mL
B5: Rat anti-ILT3 mAb 16B1 IgG2a/Kappa (antibody, V domains shown)
VH: B2 VH with S31N, Y53F, V58A, K81R, R84S, T87A, L102V
VL: B2 VL with G70D
notes: Rat IgG2a/Kappa; also called p16B1; LB184.16B1.1D2

EC50 [1]: 0.064 µg/mL
Kd [5]: 0.46 nM
Kd [7]: 9.5 nM
EC50 [8]: 0.091 µg/mL
TNFα secretion by human monocyte-derived dendritic cells polarized with IL-10 and LPS; concentration giving half of the maximal increase (EC50) [9]: ~1.9 ng/mL
B6: Chimeric anti-ILT3 52B8 mouse VH/human IgG4 (S228P):mouse VL/human Kappa (antibody)
heavy: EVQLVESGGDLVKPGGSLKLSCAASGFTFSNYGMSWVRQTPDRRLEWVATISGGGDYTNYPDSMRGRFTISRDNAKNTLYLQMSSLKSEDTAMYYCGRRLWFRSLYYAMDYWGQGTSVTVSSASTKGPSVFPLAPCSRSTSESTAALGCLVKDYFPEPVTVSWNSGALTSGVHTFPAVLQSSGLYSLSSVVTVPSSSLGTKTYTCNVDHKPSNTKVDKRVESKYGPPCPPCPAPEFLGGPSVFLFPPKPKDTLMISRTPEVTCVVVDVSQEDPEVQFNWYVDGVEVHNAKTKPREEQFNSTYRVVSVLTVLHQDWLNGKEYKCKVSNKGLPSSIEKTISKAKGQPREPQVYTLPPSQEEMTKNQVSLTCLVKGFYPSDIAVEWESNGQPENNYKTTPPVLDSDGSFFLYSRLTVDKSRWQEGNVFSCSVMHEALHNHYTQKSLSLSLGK
light: NIVLTQSPASLAVSLGQRATISCRASEKVDSFGNSFMHWYQQKPGQPPKLLIYLTSNLDSGVPARFSGSGSRTDFALTIDPVEADDAATYYCQQNNEDPYTFGGGTKLEIKRTVAAPSVFIFPPSDEQLKSGTASVVCLLNNFYPREAKVQWKVDNALQSGNSQESVTEQDSKDSTYSLSSTLTLSKADYEKHKVYACEVTHQGLSSPVTKSFNRGEC
notes: also called mAb 73; c52B8

EC50 [1]: 139 µg/mL
binding result [2]: no binding
Kd [3]: 0.592 nM
EC50 [4]: 0.139 µg/mL
B7: Rat anti-ILT3 mAb 17H12 IgG1/Kappa (antibody, V domains shown)
VH: EVQLVESGGGLVQPGRSMKLSCAASGFTFSNFDMAWVRQAPTRGLEWVSSITYDGGSTSYRDSVKGRFTISRDNAKGTLYLQMDSLRSEDTATYYCTTVESIATISTYFDYWGQGVMVTVSS
VL: DIVLTQSPALAVSLGQRATISCRASQSVSMSRYDLIHWYQQKPGQQPKLLIFRASDLASGIPARFSGSGSGTDFTLTINPVQADDIATYYCQQTRKSPPTFGGGTRLELK
notes: Rat IgG1/Kappa; also called p17H12; LB190.17H121A1

EC50 (read off the curve) [10]: ~20 ng/mL
EC50 (read off the curve) [11]: ~50 ng/mL
EC50 (read off the curve) [12]: ~20 ng/mL
B8: humanized anti-ILT3 monoclonal antibody 9B11 (antibody, V domains shown)
VH: EVQLVESGGGLVKPGGSLRLSCAASGFAFSSYDMSWVRQAPGKGLEWVSTISSSGSYTYYPDSVKGRFTISRDNAKNSLYLQMNSLRAEDTAVYYCARLWGAMDYWGQGTLVTVSS
VL: DIQMTQSPSSLSASVGDRVTITCRASQGLTNDLHWYQQKPGKAPKRLIYYASQSISGVPSRFSGSGSGTEFTLTISSLQPEDFATYYCQQSNSWPFTFGQGTKLEIK
